Assay results reported in PMC10397247.

Tests used:
[1] = target: T1, 4H678-AA; experiment: two-hybrid library CCmax; settings: mean of both orientations;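 further: natural log of median RNA to DNA barcode read ratio; higher means stronger binding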
T1 chain: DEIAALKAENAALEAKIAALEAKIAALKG

[2] = target: T2, 4H454-AA; experiment: two-hybrid library CCmax; settings: mean of both orientations;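 further: natural log of median RNA to DNA barcode read ratio; higher means stronger binding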
T2 chain: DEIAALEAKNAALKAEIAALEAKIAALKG

[3] = target: T3, 4H2837-AA; experiment: two-hybrid library CCmax; settings: mean of both orientations;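 further: natural log of median RNA to DNA barcode read ratio; higher means stronger binding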
T3 chain: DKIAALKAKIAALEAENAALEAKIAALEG

[4] = target: T4, 4H3343-AA; experiment: two-hybrid library CCmax; settings: mean of both orientations;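 further: natural log of median RNA to DNA barcode read ratio; higher means stronger binding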
T4 chain: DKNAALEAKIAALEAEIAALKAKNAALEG

[5] = target: T5, 4H1401-AA; experiment: two-hybrid library CCmax; settings: mean of both orientations
T5 chain: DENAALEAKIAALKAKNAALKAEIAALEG

[6] = target: T6, 4H2466-AA; experiment: two-hybrid library CCmax; settings: mean of both orientations
T6 chain: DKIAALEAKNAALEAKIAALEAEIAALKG

[7] = target: T7, 4H234-AA; experiment: two-hybrid library CCmax; settings: mean of both orientations
T7 chain: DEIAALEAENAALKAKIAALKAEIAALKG

[8] = target: T8, 4H3844-AA; experiment: two-hybrid library CCmax; settings: mean of both orientations
T8 chain: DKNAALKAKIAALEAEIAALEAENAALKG

[9] = target: T9, 4H993-AA; experiment: two-hybrid library CCmax; settings: mean of both orientations
T9 chain: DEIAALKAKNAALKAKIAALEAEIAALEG

[10] = target: T10, 4H2883-AA; experiment: two-hybrid library CCmax; settings: mean of both orientations
T10 chain: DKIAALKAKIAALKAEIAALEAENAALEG

[11] = target: T11, 4H1867-AA; experiment: two-hybrid library CCmax; settings: mean of both orientations
T11 chain: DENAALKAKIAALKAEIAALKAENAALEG

[12] = target: T12, 4H881-AA; experiment: two-hybrid library CCmax; settings: mean of both orientations
T12 chain: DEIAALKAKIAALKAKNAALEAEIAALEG

[13] = target: T13, 4H2505-AA; experiment: two-hybrid library CCmax; settings: mean of both orientations
T13 chain: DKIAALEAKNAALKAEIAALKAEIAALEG

[14] = target: T14, 4H2642-AA; experiment: two-hybrid library CCmax; settings: mean of both orientations
T14 chain: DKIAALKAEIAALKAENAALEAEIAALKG

[15] = target: T15, 4H2949-AA; experiment: two-hybrid library CCmax; settings: mean of both orientations
T15 chain: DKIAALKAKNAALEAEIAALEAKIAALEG

[16] = target: T16, 4H2354-AA; experiment: two-hybrid library CCmax; settings: mean of both orientations
T16 chain: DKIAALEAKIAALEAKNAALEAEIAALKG

[17] = target: T17, 4H906-AA; experiment: two-hybrid library CCmax; settings: mean of both orientations
T17 chain: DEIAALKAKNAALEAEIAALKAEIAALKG

[18] = target: T18, 4H1352-AA; experiment: two-hybrid library CCmax; settings: mean of both orientations
T18 chain: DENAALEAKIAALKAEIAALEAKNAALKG

[19] = target: T19, 4H1636-AA; experiment: two-hybrid library CCmax; settings: mean of both orientations
T19 chain: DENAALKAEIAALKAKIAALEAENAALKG

[20] = target: T20, 4H2393-AA; experiment: two-hybrid library CCmax; settings: mean of both orientations
T20 chain: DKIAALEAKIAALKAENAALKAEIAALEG

[21] = target: T21, 4H429-AA; experiment: two-hybrid library CCmax
T21 chain: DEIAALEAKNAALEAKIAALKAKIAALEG

[22] = target: T22, 4H1552-AA; experiment: two-hybrid library CCmax; settings: mean of both orientations
T22 chain: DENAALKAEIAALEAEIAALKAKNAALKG

[23] = target: T23, 4H566-AA; experiment: two-hybrid library CCmax; settings: mean of both orientations
T23 chain: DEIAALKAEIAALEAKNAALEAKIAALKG

[24] = target: T24, 4H2151-AA; experiment: two-hybrid library CCmax; settings: mean of both orientations
T24 chain: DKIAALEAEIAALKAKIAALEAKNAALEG

[25] = target: T25, 4H2944-AA; experiment: two-hybrid library CCmax; settings: mean of both orientations
T25 chain: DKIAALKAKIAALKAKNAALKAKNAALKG

[26] = target: T26, 4H2165-AA; experiment: two-hybrid library CCmax; settings: mean of both orientations
T26 chain: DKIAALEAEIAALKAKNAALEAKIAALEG

[27] = target: T27, 4H717-AA; experiment: two-hybrid library CCmax; settings: mean of both orientations
T27 chain: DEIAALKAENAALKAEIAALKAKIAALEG

[28] = target: T28, 4H2078-AA; experiment: two-hybrid library CCmax; settings: mean of both orientations
T28 chain: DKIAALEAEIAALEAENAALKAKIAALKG

[29] = target: T29, 4H122-AA; experiment: two-hybrid library CCmax
T29 chain: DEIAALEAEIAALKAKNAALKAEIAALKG

[30] = target: T30, 4H1324-AA; experiment: two-hybrid library CCmax; settings: mean of both orientations
T30 chain: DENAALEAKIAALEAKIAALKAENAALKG

[31] = target: T31, 4H342-AA; experiment: two-hybrid library CCmax; settings: mean of both orientations
T31 chain: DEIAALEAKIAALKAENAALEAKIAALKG

[32] = target: T32, 4H2617-AA; experiment: two-hybrid library CCmax; settings: mean of both orientations
T32 chain: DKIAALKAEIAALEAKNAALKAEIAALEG

[33] = target: T33, 4H3606-AA; experiment: two-hybrid library CCmax; settings: mean of both orientations
T33 chain: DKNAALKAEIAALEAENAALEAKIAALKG

[34] = target: T34, 4H3655-AA; experiment: two-hybrid library CCmax; settings: mean of both orientations
T34 chain: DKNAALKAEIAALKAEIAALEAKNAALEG

[35] = target: T35, 4H48-AA; experiment: two-hybrid library CCmax
T35 chain: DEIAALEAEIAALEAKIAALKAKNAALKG

[36] = target: T36, 4H2729-AA; experiment: two-hybrid library CCmax; settings: mean of both orientations
T36 chain: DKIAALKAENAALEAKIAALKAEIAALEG

[37] = target: T37, 4H780-AA; experiment: two-hybrid library CCmax; settings: mean of both orientations
T37 chain: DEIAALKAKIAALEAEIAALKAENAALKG

[38] = target: T38, 4H3627-AA; experiment: two-hybrid library CCmax; settings: mean of both orientations
T38 chain: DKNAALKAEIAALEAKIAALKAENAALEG

[39] = target: T39, 4H3427-AA; experiment: two-hybrid library CCmax; settings: mean of both orientations
T39 chain: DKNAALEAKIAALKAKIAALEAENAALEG

[40] = target: T40, 4H3112-AA; experiment: two-hybrid library CCmax; settings: mean of both orientations
T40 chain: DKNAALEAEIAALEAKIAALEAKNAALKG

[41] = target: T41, 4H2190-AA; experiment: two-hybrid library CCmax; settings: mean of both orientations
T41 chain: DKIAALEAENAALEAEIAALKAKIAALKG

[42] = target: T42, 4H605-AA; experiment: two-hybrid library CCmax; settings: mean of both orientations
T42 chain: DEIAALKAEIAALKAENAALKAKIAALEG

[43] = target: T43, 4H2575-AA; experiment: two-hybrid library CCmax; settings: mean of both orientations
T43 chain: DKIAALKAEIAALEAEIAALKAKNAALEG

[44] = target: T44, 4H317-AA; experiment: two-hybrid library CCmax; settings: mean of both orientations
T44 chain: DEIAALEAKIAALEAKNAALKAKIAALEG

[45] = target: T45, 4H3921-AA; experiment: two-hybrid library CCmax; settings: mean of both orientations
T45 chain: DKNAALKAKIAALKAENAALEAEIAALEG

[46] = target: T46, 4H335-AA; experiment: two-hybrid library CCmax; settings: mean of both orientations
T46 chain: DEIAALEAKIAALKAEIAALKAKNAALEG

[47] = target: T47, 4H2754-AA; experiment: two-hybrid library CCmax; settings: mean of both orientations
T47 chain: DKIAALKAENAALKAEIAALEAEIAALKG

[48] = target: T48, 4H794-AA; experiment: two-hybrid library CCmax; settings: mean of both orientations
T48 chain: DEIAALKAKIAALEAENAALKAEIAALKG

[49] = target: T49, 4H2277-AA; experiment: two-hybrid library CCmax; settings: mean of both orientations
T49 chain: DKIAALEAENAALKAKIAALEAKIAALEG

[50] = target: T50, 4H3070-bN; experiment: two-hybrid library CCNG1
T50 chain: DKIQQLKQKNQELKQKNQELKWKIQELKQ

[51] = target: T51, 4H496-bN; experiment: two-hybrid library CCNG1
T51 chain: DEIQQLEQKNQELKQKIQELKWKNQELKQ

[52] = target: T52, 4H2691-bN; experiment: two-hybrid library CCNG1
T52 chain: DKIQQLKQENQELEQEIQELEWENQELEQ

[53] = target: T53, 4H342-bN; experiment: two-hybrid library CCNG1
T53 chain: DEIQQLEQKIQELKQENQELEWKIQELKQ

[54] = target: T54, 4H3632-bN; experiment: two-hybrid library CCNG1
T54 chain: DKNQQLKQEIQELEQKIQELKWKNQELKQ

B1: 4H122-AA (peptide)
chain: DEIAALEAEIAALKAKNAALKAEIAALKG
B1 was tested, and the interaction score [1] was 1.05, the interaction score [2] was -0.403 and the interaction score [3] was 2.11. It also gave an interaction score [4] of -1.31, an interaction score [5] of -1.2 and an interaction score [6] of 0.13. It also gave an interaction score [7] of -1.28, an interaction score [8] of -0.909 and an interaction score [9] of -1.48. It also gave an interaction score [10] of 0.209, an interaction score [11] of 1.01 and an interaction score [12] of 1.43. For the same binder, the interaction score [13] was -1.39, the interaction score [14] was 1.83 and the interaction score [15] was -0.323. The interaction score [16] was 0.207, the interaction score [17] was -1.43 and the interaction score [18] was -1.3. For the same binder, the interaction score [19] was -1.44, the interaction score [20] was 1.93 and the interaction score [21] was -0.548. The interaction score [22] was -1.07, the interaction score [23] was 1.5 and the interaction score [24] was -1.58. It also gave an interaction score [25] of -1.12, an interaction score [26] of -0.0868 and an interaction score [27] of -1.17. It also gave an interaction score [28] of 2.3, an interaction score [29] of 1.61 and an interaction score [30] of -1.09. For the same binder, the interaction score [31] was 1.76, the interaction score [32] was 1.96 and the interaction score [33] was 2.36. The interaction score [34] was -1.14, the interaction score [35] was -0.383 and the interaction score [36] was 0.657. The interaction score [37] was -1.74, the interaction score [38] was -1.12 and the interaction score [39] was -0.449. It also gave an interaction score [40] of -0.199, an interaction score [41] of 1.57 and an interaction score [42] of 0.129. The interaction score [43] was -0.393, the interaction score [44] was -1.2 and the interaction score [45] was 2.16. For the same binder, the interaction score [46] was -1.07, the interaction score [47] was 0.606 and the interaction score [48] was 1.48. It also gave an interaction score [49] of -1.29.

B2: 4H2691-bN (peptide)
chain: DKIQQLKQENQELEQEIQELEWENQELEQ
For B2, the interaction score [50] was -1.24, the interaction score [51] was 1.01 and the interaction score [52] was -0.448. It also gave an interaction score [53] of -0.0194 and an interaction score [54] of -1.21.
